According to patent US20150024380A1:

Columns and labels:
[1] = target: anti-HCV antibodies of positive control sample C1 (commercial serum pool, Trina Bioreactives AG); assay: Vidas anti-HCV immunoassay: index of the positive control on coated HCV Core/NS3/NS4 antigens with 1 ug/ml peptide added (competition)
[2] = target: antibodies of human serum sample F25 (HCV-negative serum with interference) (human); assay: Vidas anti-HCV immunoassay: index of the serum on coated HCV Core/NS3/NS4 antigens with 1 ug/ml peptide added (competition)
[3] = target: antibodies of human serum sample 295 (HCV-negative serum with interference) (human); assay: as above
[4] = target: anti-HCV antibodies of positive control sample C1 (commercial serum pool, Trina Bioreactives AG); assay: Vidas anti-HCV immunoassay: index of the positive control on coated HCV Core/NS3/NS4 antigens with 5 ug/ml peptide added (competition)
[5] = target: antibodies of human serum sample 498 (HCV-negative serum with interference) (human); assay: Vidas anti-HCV immunoassay: index of the serum on coated HCV Core/NS3/NS4 antigens with 5 ug/ml peptide added (competition)
[6] = target: antibodies of human serum sample 175 1811 (HCV-negative serum with interference) (human); assay: as above
[7] = target: antibodies of human serum sample H48 (HCV-negative serum with interference) (human); assay: as above
[8] = target: antibodies of human serum sample F53 3009 (HCV-negative serum with interference) (human); assay: as above
[9] = target: antibodies of human serum sample 801 1409 (HCV-negative serum with interference) (human); assay: as above
[10] = target: antibodies of human serum sample M43 (HCV-negative serum with interference) (human); assay: as above
[11] = target: antibodies of human serum sample 284 2408 (HCV-negative serum with interference) (human); assay: as above

AQKRLAPYIE [peptide A8E (Streptococcus pneumoniae)]
Index [1]: 3.02 index
Index [2]: 0.41 index
Index [3]: 0.95 index

VSPTHYVPE [peptide V7E (HCV)]
Index [4]: 3.06 index
Index [5]: 0.35 index
Index [6]: 0.49 index
Index [7]: 1.17 index
Index [8]: 0.39 index
Index [9]: 1.04 index
Index [10]: 0.42 index
Index [11]: 1.51 index

APYIEKGM [peptide A6M (Streptococcus pneumoniae)]
Index [1]: 3.05 index
Index [2]: 2.9 index
Index [3]: 1.04 index

ECSQHLPYIE [peptide E8E (HCV)]
Index [1]: 2.92 index
Index [2]: 0.85 index
Index [3]: 0.9 index

YSPTHYVPE [peptide Y7E-1 (Staphylococcus aureus)]
Index [4]: 3.02 index
Index [5]: 0.14 index
Index [6]: 0.47 index
Index [7]: 0.88 index
Index [8]: 0.32 index
Index [9]: 0.71 index
Index [10]: 0.17 index
Index [11]: 0.86 index
